Measurements as given in paper PMC10763564 (2023).
Starred links: 1 amine or outer side, 2 acyl side, 3 side chain; linkers in the order of their positions; H or OH if unused. Positions of bridges follow the written chain, without caps; N, C: chain ends. No end group written: not given here. TBMB = c1c(C[*:1])cc(C[*:3])cc1C[*:2]

Biological target: extracellular domain of Transferrin Receptor 1 (UniProt P02786 89-760)
Assay: BLI

Sequence of extracellular domain of Transferrin Receptor 1 (P02786 89-760): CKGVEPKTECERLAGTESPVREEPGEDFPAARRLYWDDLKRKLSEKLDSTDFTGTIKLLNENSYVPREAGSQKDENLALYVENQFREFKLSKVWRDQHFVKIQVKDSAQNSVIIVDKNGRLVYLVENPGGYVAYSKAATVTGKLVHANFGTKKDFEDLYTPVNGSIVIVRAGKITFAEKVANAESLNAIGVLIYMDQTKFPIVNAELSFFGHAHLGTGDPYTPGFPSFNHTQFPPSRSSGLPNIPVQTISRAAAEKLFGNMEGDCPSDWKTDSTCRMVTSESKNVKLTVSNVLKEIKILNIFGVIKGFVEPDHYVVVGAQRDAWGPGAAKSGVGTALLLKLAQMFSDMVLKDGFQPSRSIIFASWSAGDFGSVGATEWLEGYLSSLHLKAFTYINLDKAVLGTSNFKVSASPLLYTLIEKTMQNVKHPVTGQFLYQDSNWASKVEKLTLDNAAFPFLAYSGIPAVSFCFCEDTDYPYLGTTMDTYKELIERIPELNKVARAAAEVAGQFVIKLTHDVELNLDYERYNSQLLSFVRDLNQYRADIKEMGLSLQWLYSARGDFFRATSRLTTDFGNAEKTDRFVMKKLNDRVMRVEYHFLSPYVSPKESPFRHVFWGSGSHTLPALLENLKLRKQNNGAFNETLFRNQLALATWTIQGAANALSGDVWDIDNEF

CVHWDCRQWC (linker 1-6-10 via TBMB) [BrainBike-4 as used in biolayer interferometry]
Kd: 25 µM
